The values below come from publication PMC4103834, “Structure-Based Rational Design to Enhance the Solubility and Thermostability of a Bacterial Laccase Lac15” (PLoS ONE, 2014).

One may read the Km as the substrate concentration at which the rate is half of its maximum. As a reminder, the kcat is the number of substrate molecules converted per active site and unit of time at saturation.

The subject of this data set is COc1cc(C=NN=Cc2cc(OC)c(O)c(OC)c2)cc(OC)c1O. Description: purified protein. To be noted: standard assay: 50 mM Na2HPO4-KH2PO4 pH 7.5, 100 µM CuSO4, 45 °C, conditions of the Km series not given separately.
Turning to Lac15 (uncultured bacterium), the Km is 3.74 ± 0.37 µM and the catalytic constant (kcat) was 1.39 ± 0.11 s⁻¹.

Turning to “Lac15 (uncultured bacterium; DEL323-332)”, the Km was 6.34 ± 0.19 µM and the kcat is 1.69 ± 0.13 s⁻¹.

As to Lac15-His6 (uncultured bacterium), the Km worked out at 4.53 ± 0.21 µM and the kcat was 1.35 ± 0.09 s⁻¹.
